Experimental data from patent publication US6232070A, “Pharmacological targeting of mRNA cap formation” (priority 1999, dated 2001).

B1: Cet1(201-549)p (Saccharomyces cerevisiae S288C) (protein)
chain: ANAAVDNIFEEKATLQSKKNNIKRDLEVLNEISASSKPSKYRNVPIWAQKWKPTIKALQSINVKDLKIDPSFLNIIPDDDLTKSVQDWVYATIYSIAPELRSFIELEMKFGVIIDAKGPDRVNPPVSSQCVFTELDAHLTPNIDASLFKELSKYIRGISEVTENTGKFSIIESQTRDSVYRVGLSTQRPRFLRMSTDIKTGRVGQFIEKRHVAQLLLYSPKDSYDVKISLNLELPVPDNDPPEKYKSQSPISERTKDRVSYIHNDSCTRIDITKVENHNQNSKSRQSETTHEVELEINTPALLNAFDNITNDSKEYASLIRTFLNNGTIIRRKLSSLSYEIFEGSKKVM
notes: The kinetic parameters determined for ATP hydrolysis by Cet1(201-549)p; His-tag; made in house; host or cells: Escherichia coli BL21(DE3)
B2: Cet1p (Saccharomyces cerevisiae S288C) (protein)
chain: MSYTDNPPQTKRALSLDDLVNHDENEKVKLQKLSEAANGSRPFAENLESDINQTETGQAAPIDNYKESTGHGSHSQKPKSRKSSNDDEETDTDDEMGASGEINFDSEMDFDYDKQHRNLLSNGSPPMNDGSDANAKLEKPSDDSIHQNSKSDEEQRIPKQGNEGNIASNYITQVPLQKQKQTEKKIAGNAVGSVVKKEEEANAAVDNIFEEKATLQSKKNNIKRDLEVLNEISASSKPSKYRNVPIWAQKWKPTIKALQSINVKDLKIDPSFLNIIPDDDLTKSVQDWVYATIYSIAPELRSFIELEMKFGVIIDAKGPDRVNPPVSSQCVFTELDAHLTPNIDASLFKELSKYIRGISEVTENTGKFSIIESQTRDSVYRVGLSTQRPRFLRMSTDIKTGRVGQFIEKRHVAQLLLYSPKDSYDVKISLNLELPVPDNDPPEKYKSQSPISERTKDRVSYIHNDSCTRIDITKVENHNQNSKSRQSETTHEVELEINTPALLNAFDNITNDSKEYASLIRTFLNNGTIIRRKLSSLSYEIFEGSKKVM
notes: the two truncated proteins were as active as full-length Cet1p in hydrolyzing ATP; His-tag; made in house; host or cells: Escherichia coli BL21(DE3)

Columns and labels:
[1] = substrate: Nc1ncnc2c1ncn2[C@@H]1O[C@H](COP(=O)(O)OP(=O)(O)OP(=O)(O)O)[C@@H](O)[C@H]1O; assay: ATP hydrolysis by Cet1(201-549)p; format: biochemical, Saccharomyces cerevisiae; details: other: ATP hydrolysis by the truncated enzyme; pH 7.0; 30.0 °C
Procedure: (FIG. 8A) Protein titration. Reaction mixtures (10 μl) containing 50 mM Tris HCl (pH 7.0), 5 mM DTT, 2 mM MnCl2, 1 mM [γ^32 P]ATP, and either Cet1p, Cet1(201-549)p, or Cet1(246-549)p were incubated for 15 min at 30° C. Pi release is plotted as a function of input protein. (FIG. 8B) Kinetics. Reaction mixtures (100 μl) containing 50 mM Tris HCl (pH 7.0), 5 mM DTT, 2 mM MnCl2, 1 mM [γ^32 P]ATP, and either 8, 16, or 32 nM Cet1p were incubated at 30° C. Aliquots (10 μl ) were withdrawn at the times indicated and quenched immediately by the addition of […] of 5 M formic acid. Pi release is plotted as a function of time. (FIG. 8C) Hydrolysis of [α^32 P]ATP. Reaction mixtures (100 μl) containing 50 mM Tris HCl (pH 7.0), 5 mM DTT, 2 mM MnCl2, 1 mM [α^32 P]ATP, and 100 ng of Cet1p were incubated at 30° C. Aliquots (10 μl) were withdrawn at the times indicated and quenched with formic acid. The products were analyzed by TLC. The levels of [α^32 P]ADP (o) and [α^32 P]AMP (q) are plotted as a function of time. An otherwise identical reaction containing 1 mM [γ^32 P]ATP was analyzed in parallel; Pi release (.cndot.). (FIG. 8D) ATP-dependence. Reaction mixtures (20 μl) containing 50 mM Tris HCl (pH 7.0), 5 mM DTT, 2 mM MnC2, 40 pg of Cet1p, and [γ^32 P]ATP as indicated were incubated for 15 min at 30° C. Pi release is plotted as a function of ATP concentration. […]

[2] = substrate: Nc1ncnc2c1ncn2[C@@H]1O[C@H](COP(=O)(O)OP(=O)(O)OP(=O)(O)O)[C@@H](O)[C@H]1O; assay: ATP hydrolysis by Cet1p, manganese-dependent; format: biochemical, Saccharomyces cerevisiae; details: other: 2 mM MnCl2, pH 7.0, 30° C., double-reciprocal plot
Procedure: (FIG. 8A) Protein titration. Reaction mixtures (10 μl) containing 50 mM Tris HCl (pH 7.0), 5 mM DTT, 2 mM MnCl2, 1 mM [γ^32 P]ATP, and either Cet1p, Cet1(201-549)p, or Cet1(246-549)p were incubated for 15 min at 30° C. Pi release is plotted as a function of input protein. (FIG. 8B) Kinetics. Reaction mixtures (100 μl) containing 50 mM Tris HCl (pH 7.0), 5 mM DTT, 2 mM MnCl2, 1 mM [γ^32 P]ATP, and either 8, 16, or 32 nM Cet1p were incubated at 30° C. Aliquots (10 μl ) were withdrawn at the times indicated and quenched immediately by the addition of […] of 5 M formic acid. Pi release is plotted as a function of time. (FIG. 8C) Hydrolysis of [α^32 P]ATP. […] The products were analyzed by TLC. […] An otherwise identical reaction containing 1 mM [γ^32 P]ATP was analyzed in parallel; Pi release (.cndot.). […]
The extent of ^32 Pi release from [γ^32 P]ATP during a 15 min reaction was proportional to the amount of input Cet1p protein (FIG. 8A). ^32 Pi accumulated with time over 30 min; the rate of reaction varied linearly with Cet1p concentration (FIG. 8B). From a plot of initial rate versus enzyme concentration, a turnover number of 25 s^-1 was calculated. Cet1p catalyzed the quantitative conversion of [α^32P]ATP to [α^32 P]ADP. […] No formation of [α^32 P]AMP from [α^32 P]ATP was detected, even after 20-45 min of incubation, by which time all of the nucleotide had been converted to ADP. […]

Row | Protein | Km [1] [µM] | Km [2] [µM]
1 | B1 | 3.3 | 
2 | B2 |  | 2.8
